The text below walks through data of the supplement of paper PMC10567573.

This data set can be described thus: protein stability index of a GFP-peptide fusion (GPS, HEK-293T) (PSI 1-6); higher = more stable.
[1] abbreviates: treatment: DMSO, c terminus: a fixed tail appended.
Setting [2] is: treatment: MLN4924 1 uM, 8 h, c terminus: a fixed tail appended.
The mark [3] stands for this setting: treatment: MLN4924 1 uM, 8 h, c terminus: native.

± gives the standard deviation.
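Note: 24-mer peptide tiles fused after GFP, lentivirally expressed, FACS-sorted into six equal bins by GFP/DsRed ratio, decoded by Illumina sequencing, PSI is the read-weighted mean bin number.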

PPTINGIKGLQRKERLKPAHIHLQ [KRT34]: the protein stability index turned out to be 3.34 ± 0.15 under setting [1] and 3.59 ± 0.46 under setting [2].
In the same order, the values of VSTVSHADADCFVCVFLSHGEGNH [CASP6] are 2.37 ± 0.2 and 2.18 ± 0.17.
Taken in the same sequence, the figures for DPDGEEGSSIPWNHLPDPEIFRQR [ZNF24] were 4.97 ± 0.45 and 5.02 ± 0.15.
As to DPHTKKALEAHCRADELASQDGR [PPP2R5C], the protein stability index runs as follows: (treatment: DMSO, c terminus: native) 5.16 ± 0.29; under setting [3], 5.3 ± 0.12.
With HIDIVKELIKWRAAIVVNGHGMTP [FEM1B], the protein stability index came out at 2.15 ± 0.53 under setting [1] and 2.17 ± 0.26 under setting [2].
With NEVIADINCKGRSKSNLGWTPLHL [OSBPL1A], the protein stability index turned out to be 2.48 ± 0.38 under setting [1] and 2.76 ± 0.28 under setting [2].
Taken in the same sequence, the figures for QIKCIELKSELGRKWHKASNYIFV [P2RY14] were 2.72 ± 0.93 and 2.67 ± 0.47.
In the same order, the values of VSCGFGGGAGSGFGGGYGGGLGGG [KRT13] are 2.32 ± 0.35 and 2.2 ± 0.5.
Taken in the same sequence, the figures for FGVAVVITNQVVAQVDGAAMFAAD [RAD51] were 3.26 ± 0.59 and 2.96 ± 0.62.
Regarding KKYRLTEHERAHRGEKPHGCSLCG [ZNF649], the protein stability index is 3.72 ± 0.37 under setting [1] and 3.85 ± 0.36 under setting [2].
As to TIDNDIVSMEIFFKAWLHNSGTDQ [M1AP], the protein stability index is, setting by setting: under setting [1], 2.5 ± 0.23; under setting [2], 2.36 ± 0.084.
In the same order, the values of IGSKNGGKTTIILRCLDRDEPSKP [DYNC2LI1] are 2.54 ± 0.7 and 3.16 ± 0.32.
In the same order, the values of GCQLDLRYADLEAVNRARRPLARP [RHOBTB1] are 3.07 ± 0.12 and 3.16 ± 0.28.
Taken in the same sequence, the figures for AEGAVPETQTLTGWSKGFIGMHRE [RHOBTB1] were 4.09 ± 0.12 and 4 ± 0.23.
In the case of QDDSKPTQRQFTILNFNDLMSSAV [AASDHPPT], the protein stability index runs as follows: under setting [1], 2.86 ± 0.31; under setting [2], 2.97 ± 0.28.
Taken in the same sequence, the figures for SQDERLDVLLTLKHTVKEHECKLT [IQUB] were 3.41 ± 0.3 and 3.41 ± 0.16.
Taken in the same sequence, the figures for FKEQLQALIPYVLNPSKLMEKEIN [ATL3] were 1.91 ± 0.28 and 2.22 ± 0.24.
With MTSNPITWGQIKKTTQEAEKLLER [CDK11A], the protein stability index turned out to be 4.55 ± 0.24 under setting [1] and 4.31 ± 0.25 under setting [2].
In the same order, the values of KSMAWCENSICVGFKRDYYLIRVD [VPS39] are 3 ± 1.3 and 2.39 ± 0.89.
Taken in the same sequence, the figures for PEYTYGISNIDTTIEGTSDDLTVV [MFF] were 4.61 ± 0.15 and 4.56 ± 0.078.
In the same order, the values of KELGTLIPKSSDPEMRWNKGTILK [TFE3] are 4.06 ± 0.28 and 4.01 ± 0.14.
The sequence NCPWPMSCPGSSYRTVVRPTYKVM [EMID1] gave a protein stability index under setting [1] of 2.62 ± 0.26 and a protein stability index under setting [2] of 2.47 ± 0.4.
In the same order, the values of AKILPSPVQGSSEDNLSLVCLPRS [DRICH1] are 3.94 ± 0.18 and 4.04 ± 0.18.
Taken in the same sequence, the figures for LHDARLLRTIPSPYPASKADIPSV [DCAF4] were 3.36 ± 0.21 and 3.43 ± 0.11.
In the same order, the values of EILHQQNIHQLQNRLSELEVANKD [SASS6] are 3.99 ± 0.19 and 4.13 ± 0.34.
Regarding TSGMGFHAPKIGSNGVEMAAKFPS [SDE2], the protein stability index reads like this: under setting [1], 3.53 ± 0.28; under setting [2], 3.5 ± 0.27.
For YSLAPNTPINQNVSLHQASLGGCS [NFE2L1], the protein stability index was found to be 3.54 ± 0.1 under setting [1] and 3.65 ± 0.18 under setting [2].
Taken in the same sequence, the figures for SSHHSHSYIGLPYADHNYGARPPP [KMT2E] were 3.46 ± 0.16 and 3.7 ± 0.27.
Taken in the same sequence, the figures for LCDGNPRRPSPVLRHLELLDEFAR [SCNN1D] were 3.26 ± 0.087 and 3.53 ± 0.26.
Taken in the same sequence, the figures for GAERLDALLADEERCLSCILAQQP [TRADD] were 3.59 ± 0.25 and 3.83 ± 0.28.
VGVDGVRAFLQTYSHEVSLTADSR [PCDHGA10] registered a protein stability index under setting [1] of 2.49 ± 0.37 and a protein stability index under setting [2] of 2.61 ± 0.39.
Taken in the same sequence, the figures for AGDAEVCPTPARLATTEKKTEQQR [NOP53] were 5.37 ± 0.23 and 5.44 ± 0.16.
In the same order, the values of YSKESIIFGASSVDFSLSGRLLFA [GNB5] are 2.84 ± 0.74 and 2.78 ± 0.68.
GKQPVSLPARRLKLRGRKRRQRG [CPXM2] gave a protein stability index under setting [3] of 3.59 ± 0.25.
Take AHWQCGATLTQVSVEYGYRPGATA [FCHO1]: the protein stability index amounted to 2.29 ± 0.18 under setting [1] and 2.24 ± 0.49 under setting [2].
In the same order, the values of HFWGEKNHGFEVLYHSVKQGPIST [FCHO1] are 2.44 ± 0.52 and 2.48 ± 0.43.
In the same order, the values of IFNYMRLGSTKLSDKDKAVGIFNT [OR3A1] are 2.1 ± 0.34 and 2.36 ± 0.25.
Taken in the same sequence, the figures for TCICYLCMFQEHKNHSTVTVEEAK [TRIM29] were 2.24 ± 0.43 and 2.67 ± 0.51.
For the sequence CPASNECEITKRRRKACQACRFTK [ESRRA], the protein stability index is 3.94 ± 0.33 under setting [1] and 4.26 ± 0.23 under setting [2].
TINNFSFCREEMGEVLKSSTFSSG [SPOPL]: the protein stability index was 2.33 ± 0.21 under setting [1] and 2.53 ± 0.28 under setting [2].
In the same order, the values of TLFQTESPQSGSILTEETEVKGTL [PBXIP1] are 4.92 ± 0.17 and 4.7 ± 0.25.
SLTDDKYDVAMNRAKDLVELDPEV [GOLPH3L]: the protein stability index runs as follows: under setting [1], 5.37 ± 0.16; under setting [2], 5.4 ± 0.26.
In the same order, the values of RSHSREPRAERKCPRIAPADSGRY [ELOA2] are 4.093 ± 0.032 and 4.25 ± 0.47.
Sequence REEEERERLQKEEEKRRREEEERL [ACBD3] displayed a protein stability index under setting [1] of 5.5 ± 0.35 and a protein stability index under setting [2] of 5.74 ± 0.21.
In the case of DAATTDELSSLGSDSEANGFAERR [TBC1D10A], the protein stability index runs as follows: under setting [1], 5.47 ± 0.34; under setting [2], 5.42 ± 0.23.
In the same order, the values of EKIHEMVKKNSAKSMGLKKKAFVW [ACSBG2] are 2.49 ± 0.2 and 2.45 ± 0.3.
Taken in the same sequence, the figures for NERKVAQLAEENERLKQEIERLTR [DDIT3] were 5.1 ± 0.37 and 5.18 ± 0.3.
Taken in the same sequence, the figures for STARRSRAASSQRAEEEDDDIKQL [CHMP4C] were 5.59 ± 0.073 and 5.46 ± 0.25.
With STLEESVVRICCIRSFGHFIARLQ [SMG5], the protein stability index reads like this: under setting [1], 2.29 ± 0.04; under setting [2], 2.19 ± 0.37.
In the same order, the values of EKLTKITRTGPSAWETKKILAVSF [PCMTD2] are 2.57 ± 0.57 and 2.37 ± 0.66.
Taken in the same sequence, the figures for LSHLLGDAGSPYLIGLISDRLRRN [SPNS1] were 2.18 ± 0.36 and 2.16 ± 0.39.
In the same order, the values of KREELCRQIQEEEDEKQRLQNEVR [SSNA1] are 5.01 ± 0.22 and 5.1 ± 0.075.
Consider SPTIIFDNWIPLLWCANILGYAVS [DHCR7], for which the protein stability index by setting is: under setting [1], 3.36 ± 0.13; under setting [2], 3.48 ± 0.42.
Taken in the same sequence, the figures for KSLEGGGTAFDAETDSEMNSQESR [SMG5] were 5.5 ± 0.15 and 5.58 ± 0.15.
In the same order, the values of EIIEGNTKSHIMLVQRQMSVIEED [NECAB1] are 3.56 ± 0.35 and 3.73 ± 0.26.
Take PVSGKAVFMEFGPPNQQMSPSPMS [DLX1]: the protein stability index reads like this: under setting [1], 3.5 ± 0.26; under setting [2], 3.55 ± 0.41.
Taken in the same sequence, the figures for VKYNSCADRPFSAPWWFWLSLTGV [POMT2] were 2.59 ± 0.35 and 2.72 ± 0.6.
Taken in the same sequence, the figures for TGASFQKAQQEFAAGVFSNPAVRT [SCAMP3] were 3.73 ± 0.16 and 3.79 ± 0.25.
Taken in the same sequence, the figures for GQFYLDLYPREGKYNHAACFGLQP [NLN] were 1.91 ± 0.16 and 2.09 ± 0.31.
On to EHCGAVCFVKDNPQKSYFIRLYGL [WAS], for which the protein stability index under setting [1] was found to be 2.32 ± 0.35 and the protein stability index under setting [2] was determined as 2.31 ± 0.64.
For VDWRRVSRLQEDPEGTENPLGVDE [SLA], the protein stability index under setting [1] was determined as 4.46 ± 0.36.
The sequence SARFWIPGEPNNAGNNEHCGNIKA [CD207] displayed a protein stability index under setting [1] of 4.03 ± 0.47 and a protein stability index under setting [2] of 4.18 ± 0.41.
Taken in the same sequence, the figures for IRTYLGRSPLVSGDESSLLLNAAS [RHOBTB3] were 2.62 ± 0.35 and 2.46 ± 0.34.
Taken in the same sequence, the figures for ALHCPTGTEYTCKVYPVQEALAVL [TRIB3] were 2.27 ± 0.39 and 2.28 ± 0.32.
Taken in the same sequence, the figures for EKTGPQLTSRIKGDWIGLYRHFLK [DENND6A] were 2.15 ± 0.34 and 2.08 ± 0.21.
For the sequence QNPAGELEGFQAQGHPPSLFPPKA [ATE1], the protein stability index reads like this: under setting [1], 4.66 ± 0.075; under setting [2], 4.82 ± 0.17.
In the same order, the values of KTMPKSVVGLHAASKDPREVREAR [EHMT1] are 4.78 ± 0.09 and 4.86 ± 0.26.
Taken in the same sequence, the figures for QINDGMGGDGDDMEIFMEEMREIR [BEX3] were 4.81 ± 0.17 and 4.75 ± 0.28.
As for SSLFMDTEKSGKREFDVRQTPQVN [WEE1], the protein stability index came to 4.58 ± 0.26 under setting [1] and 4.71 ± 0.27 under setting [2].
For GYNLRALAEGVSASLHTLLGDPCP [HDAC6], the protein stability index by setting is: under setting [1], 2.6 ± 0.31; under setting [2], 2.64 ± 0.2.
Taken in the same sequence, the figures for KIKPEARRYLEKSIKMGKRNGLHL [NLN] were 2.3 ± 0.44 and 2.53 ± 0.39.
Taken in the same sequence, the figures for SEAKSHSSADDASAWSNIQEAPLQ [FAN1] were 5.29 ± 0.31 and 5.04 ± 0.46.
In the case of EVDWEYFYGLLFTSENLKLVHIVC [DFFB], the protein stability index runs as follows: under setting [1], 3.34 ± 0.39; under setting [2], 2.56 ± 0.94.
